Assay results: patent US20120082682A1 (GlaxoSmithKline, published 2012)
Positions count from the first letter of the chain named. Read-outs that look alike come from different tables or passages of the source. Values belong to the binder of their own block, whether it stands above or below them.

Columns and labels:
[1] = biological target: T1, human IL-13 (recombinant E. coli-expressed) (human, UniProt P35225 35-146); test: Biacore T100 SPR, Protein A capture (CM5), human IL13 analyte, 1:1 fit
T1 construct: also called hIL-13
Method: (§1) Protein A was immobilised on a CM5 chip by primary amine coupling; this surface was used as a capture surface for the antibody molecules to be tested. […] All binding curves were double referenced with a 0 nM injection (i.e. buffer alone).
(§2) Regeneration of the Protein A surface was with 50 mM NaOH. The assay was run at 25° C. using HBS-EP as running buffer. The data was fitted to 1:1 model inherent to the Biacore T100 analysis software.

[2] = biological target: T2, cyno IL-13 (recombinant E. coli-expressed) (cynomolgus, UniProt Q0PW92 21-132); test: Biacore T100 SPR, Protein A capture (CM5), cyno IL13 analyte, 1:1 fit; 'Impossible off-rates'
T2 construct: also called cynomolgus IL-13
Method: as §1, §2

[3] = biological target: T3, human IL-4 (recombinant E. coli-expressed) (human, UniProt P05112 25-153); test: Biacore T100 SPR, Protein A capture (CM5), human IL4 analyte, 1:1 fit
T3 sequence (looked up): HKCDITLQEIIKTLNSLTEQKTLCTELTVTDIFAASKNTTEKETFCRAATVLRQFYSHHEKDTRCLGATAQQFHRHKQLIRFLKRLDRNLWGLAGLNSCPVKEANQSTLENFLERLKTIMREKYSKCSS
Method: Protein A was immobilised on a CM5 chip by primary amine coupling; this surface was used as a capture surface for the antibody molecules to be tested.
All binding curves were double referenced with a 0 nM injection (i.e. buffer alone). Regeneration of the Protein A surface was with 50 mM NaOH. The assay was run at 25° C. using HBS-EP as running buffer. The data was fitted to 1:1 model inherent to the Biacore T100 analysis software.

[4] = biological target: T3, human IL-4 (recombinant E. …); test: as above; remark: listed apart in the source
Method: Purified mAbs and mAbdAb constructs were tested in a BIAcore assay to determine whether the mutation of position 89 had any effect on the binding of the dAb to IL-4.
Protein A was immobilised on a CM5 chip by primary amine coupling; this surface was used as a capture surface for the antibody molecules to be tested. […] Regeneration of the […] surface was achieved using 50 mM NaOH. The assay was run at 25° C. using HBS-EP as running buffer. The data was fitted to 1:1 model inherent to the Biacore T100 analysis software.

[5] = biological target: T1, human IL-13 (recombinant E. …); test: Biacore T100 SPR, mAb (supernatant) captured on anti-human IgG, IL13 analyte, 1:1 fit
Source text: Table 1 details the overall affinities (equilibrium dissociation constant KD) for the selected constructs from the ProteOn screen and the T100 run

[6] = biological target: T1, human IL-13 (recombinant E. …); test: ProteOn XPR36 SPR, mAb (supernatant) captured on anti-human IgG, IL13 analyte, 1:1 fit
Method: The initial screen of CDRH3 mutants was carried out on the ProteOn XPR36 (Biorad). […] 3M MgCl₂ was used to regenerate the capture surface, removing the bound CDRH3 mutant antibodies ready for another cycle of capture and analyte injection. The data was fitted to the 1:1 model using the software inherent to the machine.

T1 sequence (P35225 other isoform, or with tags, fused parts or gaps limits assumed): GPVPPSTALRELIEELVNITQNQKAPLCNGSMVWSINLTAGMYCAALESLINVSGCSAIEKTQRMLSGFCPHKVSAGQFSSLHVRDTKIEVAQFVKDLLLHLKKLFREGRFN

Kd [1]: 0.093 nM | koff [1]: 7.18e-05 s⁻¹ | kon [1]: 775000 M⁻¹ s⁻¹ | Kd [2]: < 0.0311 nM | koff [2]: < 1e-05 s⁻¹ | kon [2]: 321000 M⁻¹ s⁻¹
B1: BPC3214 (bispecific antibody, human IgG1, kappa)
heavy: not shown
light: DIQMTQSPSSLSASVGDRVTITCRSSQNIVHINGNTYLEWYQQKPGKAPKLLIYKISDRFSGVPSRFSGSGSGTDFTLTISSLQPEDFATYYCFQGSHVPWTFGQGTKLEIKRTVAAPSVFIFPPSDEQLKSGTASVVCLLNNFYPREAKVQWKVDNALQSGNSQESVTEQDSKDSTYSLSSTLTLSKADYEKHKVYACEVTHQGLSSPVTKSFNRGEC
notes: mAbdAb with the re-humanised light chain P0

Kd [1]: 0.064 nM | koff [1]: 5.23e-05 s⁻¹ | kon [1]: 822000 M⁻¹ s⁻¹ | Kd [2]: 0.00955 nM | koff [2]: 3.13e-06 s⁻¹ | kon [2]: 328000 M⁻¹ s⁻¹
B2: BPC3215 (bispecific antibody, human IgG1, kappa)
heavy: not shown
light: B1 light with I2V, Q3L
notes: mAbdAb with the re-humanised light chain P1

Kd [3]: 0.096 nM | koff [3]: 0.000416 s⁻¹ | kon [3]: 4.34e+06 M⁻¹ s⁻¹ | Kd [4]: 0.152 nM | koff [4]: 0.000455 s⁻¹ | kon [4]: 3e+06 M⁻¹ s⁻¹
B3: BPC1090 (bispecific antibody, human IgG1, kappa)
heavy: not shown
light: DIVMTQSPLSLPVTPGEPASISCRSSQNIVHINGNTYLEWYLQKPGQSPRLLIYKISDRFSGVPDRFSGSGSGTDFTLKISRVEADDVGIYYCFQGSHVPWTFGQGTKLEIKRTVAAPSVFIFPPSDEQLKSGTASVVCLLNNFYPREAKVQWKVDNALQSGNSQESVTEQDSKDSTYSLSSTLTLSKADYEKHKVYACEVTHQGLSSPVTKSFNRGEC
notes: mAbdAb; dAb DOM9-155-154 with Kabat 89 G; also called 829H-(TVAAPS)2GS-154 (89G)

Kd [3]: 1.63 nM | koff [3]: 0.00173 s⁻¹ | kon [3]: 1.07e+06 M⁻¹ s⁻¹
B4: BPC1110 (bispecific antibody, human IgG1, kappa)
heavy: not shown
light: B3 light
notes: mAbdAb; dAb Kabat 89 W; also called 829H-(TVAAPS)2GS-154 (89W)

Kd [3]: 0.037 nM | koff [3]: 0.000111 s⁻¹ | kon [3]: 2.98e+06 M⁻¹ s⁻¹ | Kd [4]: 0.031 nM | koff [4]: 0.000104 s⁻¹ | kon [4]: 3.37e+06 M⁻¹ s⁻¹
B5: BPC1111 (bispecific antibody, human IgG1, kappa)
heavy: not shown
light: B3 light
notes: mAbdAb; dAb Kabat 89 E; also called 829H-(TVAAPS)2GS-154 (89E)

Kd [3]: 147 nM | koff [3]: 0.177 s⁻¹ | kon [3]: 1.2e+06 M⁻¹ s⁻¹
B6: BPC1109 (bispecific antibody, human IgG1, kappa)
heavy: not shown
light: B3 light
notes: mAbdAb; dAb Kabat 89 R; also called 829H-(TVAAPS)2GS-154 (89R)

Kd [3]: 0.402 nM | koff [3]: 0.00274 s⁻¹ | kon [3]: 6.82e+06 M⁻¹ s⁻¹
B7: BPC1116 (bispecific antibody, human IgG1, kappa)
heavy: not shown
light: B3 light
notes: mAbdAb; dAb Kabat 89 V; also called 829H-(TVAAPS)2GS-154 (89V)

Kd [3]: 4.69 nM | koff [3]: 0.0318 s⁻¹ | kon [3]: 6.78e+06 M⁻¹ s⁻¹ | Kd [4]: 5.76 nM | koff [4]: 0.0144 s⁻¹ | kon [4]: 2.5e+06 M⁻¹ s⁻¹
B8: BPC1095 (bispecific antibody, human IgG1, kappa)
heavy: not shown
light: B3 light
notes: mAbdAb; dAb Kabat 89 T; also called 829H-(TVAAPS)2GS-154 (89T)

Kd [3]: 0.405 nM | koff [3]: 0.00258 s⁻¹ | kon [3]: 6.39e+06 M⁻¹ s⁻¹
B9: BPC1118 (bispecific antibody, human IgG1, kappa)
heavy: not shown
light: B3 light
notes: mAbdAb; dAb Kabat 89 F; also called 829H-(TVAAPS)2GS-154 (89F)

Kd [3]: 0.231 nM | koff [3]: 0.000913 s⁻¹ | kon [3]: 3.95e+06 M⁻¹ s⁻¹
B10: BPC1117 (bispecific antibody, human IgG1, kappa)
heavy: not shown
light: B3 light
notes: mAbdAb; dAb Kabat 89 I; also called 829H-(TVAAPS)2GS-154 (89I)

Kd [3]: 2.08 nM | koff [3]: 0.00304 s⁻¹ | kon [3]: 1.46e+06 M⁻¹ s⁻¹ | Kd [4]: 1.95 nM | koff [4]: 0.00373 s⁻¹ | kon [4]: 1.91e+06 M⁻¹ s⁻¹
B11: BPC1094 (bispecific antibody, human IgG1, kappa)
heavy: not shown
light: B3 light
notes: mAbdAb; dAb Kabat 89 A; also called 829H-(TVAAPS)2GS-154 (89A)

Kd [3]: 0.281 nM | koff [3]: 0.00123 s⁻¹ | kon [3]: 4.38e+06 M⁻¹ s⁻¹
B12: BPC1108 (bispecific antibody, human IgG1, kappa)
heavy: not shown
light: B3 light
notes: mAbdAb; dAb Kabat 89 C; also called 829H-(TVAAPS)2GS-154 (89C)

Kd [3]: 0.168 nM | koff [3]: 0.00102 s⁻¹ | kon [3]: 6.05e+06 M⁻¹ s⁻¹ | Kd [4]: 0.244 nM | koff [4]: 0.000966 s⁻¹ | kon [4]: 3.96e+06 M⁻¹ s⁻¹
B13: BPC1091 (bispecific antibody, human IgG1, kappa)
heavy: not shown
light: B3 light
notes: mAbdAb; dAb Kabat 89 S; also called 829H-(TVAAPS)2GS-154 (89S)

Kd [3]: 0.656 nM | koff [3]: 0.00255 s⁻¹ | kon [3]: 3.89e+06 M⁻¹ s⁻¹
B14: BPC1114 (bispecific antibody, human IgG1, kappa)
heavy: not shown
light: B3 light
notes: mAbdAb; dAb Kabat 89 N; also called 829H-(TVAAPS)2GS-154 (89N)

Kd [3]: 1.71 nM | koff [3]: 0.00389 s⁻¹ | kon [3]: 2.27e+06 M⁻¹ s⁻¹ | Kd [4]: 1.79 nM | koff [4]: 0.00534 s⁻¹ | kon [4]: 2.98e+06 M⁻¹ s⁻¹
B15: BPC1092 (bispecific antibody, human IgG1, kappa)
heavy: not shown
light: B3 light
notes: mAbdAb; dAb Kabat 89 H; also called 829H-(TVAAPS)2GS-154 (89H)

Kd [5]: 0.779 nM | Kd [6]: 0.873 nM
B16: A1D98GluL1 (antibody, human IgG1, kappa, V domains shown)
VH: QVQLVQSGAEVKKPGSSVKVSCKASGFYIKDTYMHWVRQAPGQGLEWMGTIDPANGNTKYVPKFQGRVTITADESTSTAYMELSSLRSEDTAVYYCARSIYEDYHYDDYYAMDYWGQGTLVTVSS
VL: DIVMTQSPLSLPVTPGEPASISCRSSQNIVHINGNTYLEWYLQKPGQSPRLLIYKISDRFSGVPDRFSGSGSGTDFTLKISRVEADDVGIYYCFQGSHVPWTFGQGTKLEIKR
notes: CDRH3 variant of A1L1

Kd [5]: 0.174 nM | Kd [6]: 0.131 nM
B17: A1H100A SerL1 (antibody, human IgG1, kappa, V domains shown)
VH: B16 VH with E102D, H105S
VL: B16 VL
notes: CDRH3 variant of A1L1

Kd [5]: 0.618 nM | Kd [6]: 0.683 nM
B18: A1Y97PheL1 (antibody, human IgG1, kappa, V domains shown)
VH: B16 VH with Y101F, E102D
VL: B16 VL
notes: CDRH3 variant of A1L1

Kd [5]: 0.195 nM | Kd [6]: 0.11 nM
B19: A1H100A GluL1 (antibody, human IgG1, kappa, V domains shown)
VH: B16 VH with E102D, H105E
VL: B16 VL
notes: CDRH3 variant of A1L1

Kd [5]: 0.172 nM
B20: A1H100A AlaL1 (antibody, human IgG1, kappa, V domains shown)
VH: B16 VH with E102D, H105A
VL: B16 VL
notes: CDRH3 variant of A1L1

Kd [5]: 0.696 nM | Kd [6]: 0.395 nM
B21: A1I96ValL1 (antibody, human IgG1, kappa, V domains shown)
VH: B16 VH with I100V, E102D
VL: B16 VL
notes: CDRH3 variant of A1L1

Kd [5]: 0.152 nM | Kd [6]: 0.112 nM
B22: A1H100A ValL1 (antibody, human IgG1, kappa, V domains shown)
VH: B16 VH with E102D, H105V
VL: B16 VL
notes: CDRH3 variant of A1L1

Kd [5]: 0.278 nM | Kd [6]: 0.195 nM
B23: A1H100A GlnL1 (antibody, human IgG1, kappa, V domains shown)
VH: B16 VH with E102D, H105Q
VL: B16 VL
notes: CDRH3 variant of A1L1

Kd [5]: 0.211 nM | Kd [6]: 0.158 nM
B24: A1H100A ThrL1 (antibody, human IgG1, kappa, V domains shown)
VH: B16 VH with E102D, H105T
VL: B16 VL
notes: CDRH3 variant of A1L1

Kd [5]: 0.307 nM | Kd [6]: 0.256 nM
B25: A1H100A ArgL1 (antibody, human IgG1, kappa, V domains shown)
VH: B16 VH with E102D, H105R
VL: B16 VL
notes: CDRH3 variant of A1L1

Kd [5]: 0.216 nM
B26: A1S95TrpL1 (antibody, human IgG1, kappa, V domains shown)
VH: B16 VH with S99W, E102D
VL: B16 VL
notes: CDRH3 variant of A1L1
